Measured values taken from US8524460.

T1: M (46-109)
T1 sequence (O43653 whole entry, species assumed, looked up): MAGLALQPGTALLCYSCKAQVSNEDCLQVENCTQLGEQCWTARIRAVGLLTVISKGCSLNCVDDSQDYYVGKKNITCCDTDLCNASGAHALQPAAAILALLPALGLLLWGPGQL

T2: PSCA-glutathione S-transferase (GST) fusion protein (human) (UniProt O43653)
T2 sequence: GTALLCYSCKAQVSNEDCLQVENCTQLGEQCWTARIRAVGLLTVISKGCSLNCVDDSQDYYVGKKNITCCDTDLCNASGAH

B1: anti-PSCA monoclonal antibody 2H9 (antibody, part only; not given: light chain, mouse IgG1, part only)
VH: NDFGLSWVFIIVLLKGVRSEVRLEESGGGWVQPGGSMKLSCVASGFTFSNYWMTWVRQSPEKGLEWVAEIRLRSENYATHYAESVKGKFTISRDDSRSRLYLQMNNLRPEDSGIYYCTDGLGRPNWGQGTLVTVSAAKTTPPSVYPLAPCV
B2: anti-PSCA monoclonal antibody 1G8 (antibody, part only; not given: light chain, mouse IgG1, V domains shown, part only)
VH: CFFLMAVVIGVNSEVQLQQSGAELVRSGASVKLSCTASGFNIKDYYIHWVNQRPDQGLEWIGWIDPENGDTEFVPKFQGKATMTADIFSNTAYLHLSSLTSEDTAVYYCKTGGFWGQGTLVTVSAAKTTPPSVYPL
B3: anti-PSCA monoclonal antibody 4A10 (antibody, part only; not given: light chain, mouse IgG2a, V domains shown, part only)
VH: LVATASDVHSQVQLQQPGSELVRPGTSVKLSCKASGYTFSSYWMHWVKQRPGQGLEWIGNIDPGSGYTNYAENLKTKATLTVDTSSSTAYMQLSSLTSEDSAVYYCTSRSTMITTGFAYWGQGTLVTVSAATTTAPSVYPLA

Tests used:
Assay in all cases: ELISA: GST-PSCA fusion protein 50 ng/well, hybridoma supernatant, anti-mouse-HRP, TMB; mean of duplicates
[1] = substrate: T3, N (2-50)
T3 sequence (O43653 whole entry, species assumed, looked up): T1 sequence (O43653 whole entry, species assumed, looked up)

[2] = substrate: T4, C (85-123)
T4 sequence (O43653 whole entry, species assumed, looked up): T1 sequence (O43653 whole entry, species assumed, looked up)

[3] = target: T1, M (46-109)
[4] = target: T2, PSCA-glutathione S-transferase (GST) fusion protein (human)

Binder | OD 450 nm [1] [OD 450 nm] | OD 450 nm [2] [OD 450 nm] | OD 450 nm [3] [OD 450 nm] | OD 450 nm [4] [OD 450 nm]
B1 | 1.03 | 0.001 | 0.002 | 1.07
B2 | 0.004 | 0.003 | 1.27 | 1.49
B3 | 0.493 | 0.001 | – | 1.05
